{"source": "the nanobody polyreactivity screen of Harvey et al. (2022)", "assay": "yeast display, Sf9 membrane polyspecificity reagent, FACS + sequencing; frameworks hold sequencing errors", "outline": "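Using colony PCR, genes from sorted yeast display clones were amplified, then sequenced on MiSeq at 2 × 250 and filtered by CDR length. The clones had been stained with 10% biotinylated, detergent-solubilized Sf9 membrane reagent for 1 hour at 4 °C and sorted by FACS into low and high (top ~1%) gates on anti-HA and streptavidin fluorescence. Polyreactivity labels come from the gate of origin.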", "data": [{"sequence": "QVQLEESGGGLVQAGGSLRLTCDASGLIFSYYAMGWYRQAPGKERELVAAITGSGGTTYYADSVKGRFTISRDNAKNTVLLQMNSLKPEDTAVYYCATPPPEVWQRWYREYDYWGQGTQVTVSS", "values": [{"measurement": "polyreactivity (PSR sort gate)", "result": "low polyreactivity"}]}, {"sequence": "QVQLVESGGGLVQAGGSLRLSCAASGFIFYYNAMVWYRQAPGKERELVAAITDDGGGTYYADSVKGRFTISRDNAKNTVYLQMNSLKPEDTAVYYCAADGYNYEHDYWGQGTQVTVSS", "values": [{"measurement": "polyreactivity (PSR sort gate)", "result": "low polyreactivity"}]}, {"sequence": "QVQLVESGGGLVQAGGSLLLSCSASGRTFPVNAMGWYRKAHGKEREFVAVISSTGTTYYADSVKGRFTISRDNAKNTVYLQMNSLQPVDTAVYYCARRSNRRAYGNRVGVRRTVDYWGQGTQVTVSS", "values": [{"measurement": "polyreactivity (PSR sort gate)", "result": "low polyreactivity"}]}, {"sequence": "QVQLVESVGGLVQAGGSLRLSCAASGSTFALNAMGWYRQAPGKERELVAAISYSGGSTYYADSVKGRFTISRDNAKNTVYLQINSLKPDDTAVYYCNAEVYFSGWVLYYYWGQGTQVTVSS", "values": [{"measurement": "polyreactivity (PSR sort gate)", "result": "high polyreactivity"}]}, {"sequence": "QVQLLESGGGLVKAGGSLRLSCAPYGSIFYGYAMGWYRPAPGKERELVAAITRSGGSTYYADSVKGRFTITRFNAKNTVYLQMNSLKPEDTAVYYCAAGWRSVSVRYYGPSDYWGQGTQVTVSS", "values": [{"measurement": "polyreactivity (PSR sort gate)", "result": "low polyreactivity"}]}, {"sequence": "QVQLVESGGGLVQAGGSLRLSCAASGGTFYVNALGWYRQAAGKERELVAAISYSGGNTYYADSVKGRFTISRDNAKNTVYLQMNSLKPEDTAVYYCAGEVFPWWGDDYWGQGTQVTVSS", "values": [{"measurement": "polyreactivity (PSR sort gate)", "result": "low polyreactivity"}]}, {"sequence": "QVQLVESGGGLVQAGGSLRLSCAASGSTFVIYGKGWYRQAPGKERELVASISGSGGSTFYADSVKGRFTISRDNAKITVYLEMNSRKPEDTAVYYCAAAVGVGRSGGTYDYWGQGTQVTVSS", "values": [{"measurement": "polyreactivity (PSR sort gate)", "result": "low polyreactivity"}]}, {"sequence": "QVQLVESGGGLVQAGGSLRLSCAASGRIFDIYTMGWYRQAPGKERELVASITKRGGSTYYADSVKGRFTISRDNAKNTVYLQMNSLKPEDTAVYYCNVAGKQKPYYVTTRLDYWGQGTQVTVSS", "values": [{"measurement": "polyreactivity (PSR sort gate)", "result": "high polyreactivity"}]}, {"sequence": "QVQLVESGGGLVQAGGSLRLSCAASGYIFSLNGMGWYRQAPGKVRELVAAITVSGGRTYYADSVKGRFTISRDNAKNTVYLQMNSLKPEDTAVYYCAKRGKYSYWPYYKYDYWGQGTQVTVSS", "values": [{"measurement": "polyreactivity (PSR sort gate)", "result": "high polyreactivity"}]}, {"sequence": "QVQHVESGGGLVQAGGSLRLTCAASGYIFYYNAMGWYRHAPGKEREMVAAINYSGTSTYYADSVKGRFTISRDNAKNTVYLQMNSLKPEDTAVFYCAKVPHYPLAGRLAILDYWGQGSQVTVSS", "values": [{"measurement": "polyreactivity (PSR sort gate)", "result": "high polyreactivity"}]}, {"sequence": "QVQLVESGGGLVQAGGSLRLSCAASGFTFKYYAMGWYRQAPGKERELVAAISSRGGSTYYADSVKGRFTISRDKAKNTVYLQMNSLKPEDTAVYYCAAYYRTGSIWYAIFSDDYWGQGTQVTVSS", "values": [{"measurement": "polyreactivity (PSR sort gate)", "result": "high polyreactivity"}]}, {"sequence": "QFQLVESGGGLVQARGSLRLSCAASGSTFRYYGMGWYRQTPGKERELVAAISSSGGSTYYADSVKGRFTISRDNAKITVYLKMNSLKPEDNAVYYCAAGSRFVSSRLYYWGQGTQVTVSS", "values": [{"measurement": "polyreactivity (PSR sort gate)", "result": "high polyreactivity"}]}, {"sequence": "QVQLVESGGGLVQAGGSLRLSCAASGFIFYDYAMGWYRQAPGKEREMVAGITDSGGSTSYADSVKGRFTISRDNAKNTVYLQMNSLKPEDTAVYYCAADNYVRAGINYDYWGQGTQVTVSS", "values": [{"measurement": "polyreactivity (PSR sort gate)", "result": "low polyreactivity"}]}, {"sequence": "QVQLVESGGGLVQAGGSLRLSCAASGRTFYYNAMGWYRQAPGKERELVATISWRGGNTYYADSVKGRFTISRDNAKNTVYLQMNSLKPEDTAVYYCNARTVGWKALTGKYDYWGQGTQVTVSS", "values": [{"measurement": "polyreactivity (PSR sort gate)", "result": "high polyreactivity"}]}, {"sequence": "QVQLVESGGRLVQGGGSLRLSCAASGITFKGYTMGWYRQAPGKERELVATISRGGRTYADSVKGRFTISRDNAKNTVYLQMNSLKPEDSAVYYCAADKYWAQNDYWGQGTQVTVSS", "values": [{"measurement": "polyreactivity (PSR sort gate)", "result": "low polyreactivity"}]}, {"sequence": "QVQLVESGGGLVQAGGSLRLSCAASGGIFWYYTMGWYRQAPGKERELVATLSSGGRTYYADSVKGRFTMSRDNAKNTVYLQMNSLKPEDTAVYYCAAVGWYHDYYWGQGTQVTVSS", "values": [{"measurement": "polyreactivity (PSR sort gate)", "result": "high polyreactivity"}]}, {"sequence": "QDQLVESGGGLVQAGGSLRLSCAASGLTFDSYAMGWYRQAPGKERELVAAISWNTASTYYADSVKGRFTISRDNAKNTVYLQMNSLKPEDTAVYYCAAARSRRPHYDYWRQGTQVTVSS", "values": [{"measurement": "polyreactivity (PSR sort gate)", "result": "high polyreactivity"}]}]}
